Measured values reported in patent US20060257938A1, “Method of screening for drugs that block ligand binding to a lipid binding protein” (priority 2005, published 2006).
Changes are numbered by the printed parent chain. Where “and” joins values, the source holds several entries; their conditions need not be identical. Identical values can stand only once.

B1: 106D3, 72A (protein, listed as Rattus norvegicus)
chain: AFDGTWKVDRNENYEKFMEKMGINVVKRKLGAHDNLKLTITQEGNKFTVKESSNFRNIDVVFELGVDFAYSAADGTELTGTWTMEGNKLVGKFKRVDNGKELIAVDEISGNELIQTYTYEGVEAKRIFKKE
modifications: PEPTIDE (1)...(131) wild-type rat intestinal fatty acid binding protein
B2: 106I3, 72A (protein, listed as Rattus norvegicus)
chain: B1 chain with D106I
modifications: PEPTIDE (1)...(131) wild-type rat intestinal fatty acid binding protein
B3: 106L3, 72A (protein, listed as Rattus norvegicus)
chain: B1 chain with D106L
modifications: PEPTIDE (1)...(131) wild-type rat intestinal fatty acid binding protein
B4: 115D1, 72A (protein, listed as Rattus norvegicus)
chain: B1 chain with D106R, Q115D
modifications: PEPTIDE (1)...(131) wild-type rat intestinal fatty acid binding protein
B5: 106T2, 72A (protein, listed as Rattus norvegicus)
chain: B1 chain with D106T
modifications: PEPTIDE (1)...(131) wild-type rat intestinal fatty acid binding protein
B6: 106Q, 72A (protein, listed as Rattus norvegicus)
chain: B1 chain with D106Q
modifications: PEPTIDE (1)...(131) wild-type rat intestinal fatty acid binding protein
B7: 106H2, 72A (protein, listed as Rattus norvegicus)
chain: B1 chain with D106H
modifications: PEPTIDE (1)...(131) wild-type rat intestinal fatty acid binding protein
B8: 113M, 72A (protein, listed as Rattus norvegicus)
chain: B1 chain with D106R, L113M
modifications: PEPTIDE (1)...(131) wild-type rat intestinal fatty acid binding protein
B9: 106W, 72A (protein, listed as Rattus norvegicus)
chain: B1 chain with D106W
modifications: PEPTIDE (1)...(131) wild-type rat intestinal fatty acid binding protein
B10: 106V1, 72A (protein, listed as Rattus norvegicus)
chain: B1 chain with D106V
modifications: PEPTIDE (1)...(131) wild-type rat intestinal fatty acid binding protein
B11: 106F1, 72A (protein, listed as Rattus norvegicus)
chain: B1 chain with D106F
modifications: PEPTIDE (1)...(131) wild-type rat intestinal fatty acid binding protein
B12: 102A, 72A (protein, listed as Rattus norvegicus)
chain: B1 chain with L102A, D106R
modifications: PEPTIDE (1)...(131) wild-type rat intestinal fatty acid binding protein
B13: 106S2, 72A (protein, listed as Rattus norvegicus)
chain: B1 chain with D106S
modifications: PEPTIDE (1)...(131) wild-type rat intestinal fatty acid binding protein
B14: 115A1, 72A (protein, listed as Rattus norvegicus)
chain: B1 chain with D106R, Q115A
modifications: PEPTIDE (1)...(131) wild-type rat intestinal fatty acid binding protein
B15: 115F1, 72A (protein, listed as Rattus norvegicus)
chain: B1 chain with D106R, Q115F
modifications: PEPTIDE (1)...(131) wild-type rat intestinal fatty acid binding protein
B16: 115E1, 72A (protein, listed as Rattus norvegicus)
chain: B1 chain with D106R, Q115E
modifications: PEPTIDE (1)...(131) wild-type rat intestinal fatty acid binding protein
B17: 115I3, 72A (protein, listed as Rattus norvegicus)
chain: B1 chain with D106R, Q115I
modifications: PEPTIDE (1)...(131) wild-type rat intestinal fatty acid binding protein
B18: 106Y1, 72A (protein, listed as Rattus norvegicus)
chain: B1 chain with D106Y
modifications: PEPTIDE (1)...(131) wild-type rat intestinal fatty acid binding protein
B19: 106N1, 72A (protein, listed as Rattus norvegicus)
chain: B1 chain with D106N
modifications: PEPTIDE (1)...(131) wild-type rat intestinal fatty acid binding protein
B20: 115H1, 72A (protein, listed as Rattus norvegicus)
chain: B1 chain with D106R, Q115H
modifications: PEPTIDE (1)...(131) wild-type rat intestinal fatty acid binding protein

Assay: Probe fluorescence ratio response to arachidonic acid relative to ADIFAB2
Assay type: binding
Details: arachidonic acid; response relative to ADIFAB2
Outline: (§1)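 Each fatty acid's response was expressed relative to ADIFAB2, the rI-FABP-L72A probe, as ΔR/ΔRreference. ΔR is the change in the background-corrected two-wavelength intensity ratio R=Fλ1/Fλ2 from its analyte-free baseline R0. Emission was read near about 420-480 nm for unbound and about 495-580 nm for FFA-bound probe.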

Molecule | DR/DR AA
B1 | 0.66
B2 | 0.59
B3 | 0.84
B4 | 1.17
B5 | 0.43
B6 | 0.37
B7 | 0.75
B8 | 1.33
B9 | 1.11 and 1.106
B10 | 0.61
B11 | 0.75
B12 | 0.45
B13 | 0.32
B14 | 1.17
B15 | 1.36
B16 | 0.12
B17 | 0.87
B18 | 0.57
B19 | 0.38
B20 | 0.89

Assay: Probe fluorescence ratio response to linolenic acid relative to ADIFAB2
Assay type: binding
Details: response relative to ADIFAB2
Outline: as §1

Molecule | DR/DR LNA
B1 | 0.77
B2 | 0.71
B3 | 0.84
B4 | 1.20
B5 | 0.58
B6 | 0.38
B7 | 0.73
B8 | 1.38
B9 | 1.03
B10 | 0.82
B11 | 0.71
B12 | 0.44
B13 | 0.40
B14 | 1.26
B15 | 1.49
B16 | 0.10
B17 | 0.80
B18 | 0.60
B19 | 0.44
B20 | 0.70

Assay: Probe fluorescence ratio response to linoleic acid relative to ADIFAB2
Assay type: binding
Details: response relative to ADIFAB2
Outline: as §1

Molecule | DR/DR LA
B1 | 0.80
B2 | 0.68
B3 | 0.87
B4 | 1.19
B5 | 0.47
B6 | 0.36
B7 | 0.78
B8 | 1.46
B9 | 1.04 and 1.042
B10 | 0.82
B11 | 0.78
B12 | 0.35
B13 | 0.36
B14 | 1.22
B15 | 1.46
B16 | 0.15
B17 | 0.81
B18 | 0.61
B19 | 0.45
B20 | 0.74

Assay: Probe fluorescence ratio response to oleic acid relative to ADIFAB2
Assay type: binding
Details: response relative to ADIFAB2
Outline: as §1

Molecule | DR/DR OA
B1 | 0.64
B2 | 0.72
B3 | 0.87
B4 | 1.21
B5 | 0.53
B6 | 0.39
B7 | 0.82
B8 | 1.42
B9 | 0.99 and 0.991
B10 | 0.84
B11 | 0.78
B12 | 0.52
B13 | 0.48
B14 | 1.20
B15 | 1.41
B16 | 0.10
B17 | 0.88
B18 | 0.60
B19 | 0.50
B20 | 0.68

Assay: Probe fluorescence ratio response to palmitic acid relative to ADIFAB2
Assay type: binding
Details: response relative to ADIFAB2
Outline: as §1

Molecule | DR/DR PA
B1 | 0.26
B2 | 0.29
B3 | 0.43
B4 | 1.14
B5 | 0.23
B6 | 0.18
B7 | 0.33
B8 | 1.19
B9 | 0.41 and 0.407
B10 | 0.32
B11 | 0.38
B12 | 0.20
B13 | 0.15
B14 | 1.11
B15 | 0.77
B16 | 0.08
B17 | 0.84
B18 | 0.27
B19 | 0.15
B20 | 0.51
